Results taken from article PMC11933685 (Nature Communications, 2025).

Biological target: T1, recombinant mouse neuropilin-1 (C-6His, #C11R; NRP-1) (mouse, UniProt P97333 22-856)
T1 sequence (looked up): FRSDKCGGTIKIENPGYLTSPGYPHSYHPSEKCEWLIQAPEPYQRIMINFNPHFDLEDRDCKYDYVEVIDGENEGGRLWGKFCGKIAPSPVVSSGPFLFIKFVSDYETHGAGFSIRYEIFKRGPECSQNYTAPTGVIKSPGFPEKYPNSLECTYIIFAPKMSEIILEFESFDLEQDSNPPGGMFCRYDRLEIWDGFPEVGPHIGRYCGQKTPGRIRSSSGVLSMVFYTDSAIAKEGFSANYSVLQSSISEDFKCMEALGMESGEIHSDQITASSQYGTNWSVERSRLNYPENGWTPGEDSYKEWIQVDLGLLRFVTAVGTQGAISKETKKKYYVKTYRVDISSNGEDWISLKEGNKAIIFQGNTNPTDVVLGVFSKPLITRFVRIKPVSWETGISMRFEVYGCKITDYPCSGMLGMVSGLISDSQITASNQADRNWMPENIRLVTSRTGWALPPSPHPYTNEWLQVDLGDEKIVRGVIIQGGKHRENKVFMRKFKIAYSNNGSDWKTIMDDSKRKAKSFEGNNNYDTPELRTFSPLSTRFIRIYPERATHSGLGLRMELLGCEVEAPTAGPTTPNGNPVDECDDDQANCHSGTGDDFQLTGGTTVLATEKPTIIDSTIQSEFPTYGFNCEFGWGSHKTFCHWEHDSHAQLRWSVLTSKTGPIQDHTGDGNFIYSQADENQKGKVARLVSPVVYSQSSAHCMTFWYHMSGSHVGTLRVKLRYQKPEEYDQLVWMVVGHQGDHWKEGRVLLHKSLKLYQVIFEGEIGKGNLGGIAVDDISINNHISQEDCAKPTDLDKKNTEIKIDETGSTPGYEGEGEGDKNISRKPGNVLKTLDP
Test: SPR

Kd: 6.49 µM
Binder: CGNKRTR [cancer homing peptide (CHP, CGNKRTR), free peptide]
